Data on two molecules can be found in patent publication US10053696B2, “MiRNA-489 in treatment of breast cancer” (University of South Carolina, priority 2016, dated 2018).

Data set [1] relates to HER2, AKT and MAPK phosphorylation in MCF7 vect and MCF7 HER2 cells. As to the kind of experiment: Western blot of HER2 signaling after lapatinib treatment. It counts as cell-based. Conditions: 2 μM lapatinib, 48 h, Western blot (FIG. 3). On the procedure:
(§1) Quantitative real-time RT-PCR analysis, Immunohistochemistry staining (IHC), Western Blot analysis, Fluorescence-Activated Cell Sorting (FACS) assay, Luciferase assay and Xenograft experiments were performed using standard protocol.
(§2) To identify specific miRNAs that may be involved in promotion of breast cancer progression, expression profiles of several (˜200) miRNA were screened and compared for HER2 over-expressing and control MCF7 cells using quantitative RT-PCR (qRT-PCR) analysis.
(In general: In western blotting, separated proteins are transferred to a membrane and probed.)

The subject of data set [2] is miR-489, miR-125b and miR-99a expression in MCF7 HER2 cells. The data set is described as follows: qRT-PCR of HER2-regulated miRNAs after lapatinib treatment. Format: cell-based. To be noted: lapatinib treated MCF7 HER2 cells, qRT-PCR (FIG. 4). On the procedure:
All data are representative of three independent experiments.
as §1, §2
(In qPCR the cycle at which signal appears reflects the starting amount.)

In a further data set the test system is 3′UTR of HER2. As to the kind of experiment: Dual luciferase assay with HER2 3′UTR reporter constructs. Format: cell-based, human. Conditions: MCF7 HER2 cells, co-transfected 48 h, normalized with renilla (FIG. 16). On the procedure:
FIG. 16 presents a schematic representation of the HER2 mRNA (wild type (wt) and mutant (mut)) with putative miR-489 binding site in the 3′ UTR, where the seed region is highlighted. MCF7 HER2 cells were co-transfected with either of miR-489 expressing vector or empty vector and renilla expressing vector for 48 h. Firefly luciferase was measured for each condition and normalized with renilla luciferase. Normalized luciferase activity was compared with WT-3′UTR and Mutant 3′ UTR of HER2 (graph).
A 650 bp long 3′ UTR of human HER2 was amplified from genomic DNA and cloned into the pGL3-promoter vector at the same Xba I and BamH I sites. For the mutation analysis putative miR-489 target site within 3′UTR of HER2 was mutated by Phusion site directed mutagenesis kit (Thermofisher Cat# F-541). All sequences were verified by direct sequencing of the plasmids.
as §1
To examine the similar effect of mimic-489 treatment on the expression of HER2, other breast cancer cell lines, AU-565, BT-474, HCC-1954 and ZR-75-1 cells were treated with mimic-489 for 72 hours to isolate total protein and RNA. […]

The test system of a further data set is SHP2. The data set is described as follows: SHP2 expression in breast cancer cell lines after miR-489 overexpression. It counts as cell-based. Conditions: mRNA and protein levels.

On to `CS(=O)(=O)CCNCc1ccc(-c2ccc3ncnc(Nc4ccc(OCc5cccc(F)c5)c(Cl)c4)c3c2)o1` [lapatinib], for which the “HER2, AKT and MAPK phosphorylation” value in data set [1] is “almost complete blockade”. The “expression of miR-489, miR-125b and miR-99a after inhibition of HER2 phosphorylation” value in data set [2] is given as “at least partially restored the expression profile”.

B1: miR-489: microRNA-489 (SEQ ID NO: 2); overexpressed in cells, e.g. from miR-489 expressing vector in the luciferase assay (nucleic acid, listed as Homo sapiens)
chain: GUGGCAGCUUGGUGGUCGUAUGUGUGACGCCAUUUACUUGAACCUUUAGGAGUGACAUCACAUAUACGGCAGCUAAACUGCUAC
Consider B1, for which, in the data set with 3′UTR of HER2, the “luciferase activity of mutant HER2 3′UTR” value is reported as “not the mutant HER2 3′UTR is significantly reduced” and the “luciferase activity of wt HER2 3′UTR” value is on record as “significantly reduced”. Besides, the SHP2 expression entry in the data set with SHP2 is “reduced SHP2 expression”.
